Measured values taken from doi:10.1101/2022.10.09.511488 (bioRxiv, 2022).

B1: HucM (MSMEG_2261) (natural protein)
chain: MASNGHSAGQNAIDELPDISPVDGIRRRLDDPQVAEALNSLLDHADLLAVLVKGLDGFVRRGDDIANNLTSAIGELKALNAADTPIPALAALKDVDLAGLANSLATLSGGLVKATPALNAVLDSLTDQRGAEVLSALGDALVAARTSAPPAPRGVRGMWKTLRAAAKDPDVGRGVSYLIEVARVFGSKV

Experiments:
[1] = biological target: Huc protomer (HucSL heterodimer) (Mycobacterium smegmatis mc2155); experiment: cryo-EM structure
cryo-EM structure = biological target: the molecule itself; experiment: cryo-EM structure

Molecule | stoichiometry N [1] | stoichiometry N (cryo-EM structure)
Huc protomer (HucSL heterodimer) (complex) | 2 | 
B1 |  | 4
